The assay addresses SARS-CoV-2 S1 WT (in-house) (SARS-CoV-2, UniProt P0DTC2). Put plainly: SPR. A general note: Surface plasmon resonance follows binding to a sensor surface in real time, without labels.

B1: REGN10987 (antibody, V domains shown)
VH: QVQLVESGGGVVQPGRSLRLSCAASGFTFSNYAMYWVRQAPGKGLEWVAVISYDGSNKYYADSVKGRFTISRDNSKNTLYLQMNSLRTEDTAVYYCASGSDYGDYLLVYWGQGTLVTVSS
VL: QSALTQPASVSGSPGQSITISCTGTSSDVGGYNYVSWYQQHPGKAPKLMIYDVSKRPSGVSNRFSGSKSGNTASLTISGLQSEDEADYYCNSLTSISTWVFGGGTKLTVL
B1: the binding result is reported as “binds”.

Values taken from doi:10.1101/2021.03.17.435802 (bioRxiv, 2021).
